Assay results published in PMC7540344.

Columns and labels:
YC‐StCEN = assay: bimolecular fluorescence complementation (BiFC); settings: random fields from maximum intensity projections (n ≥ 10); opposing half-leaves, same imaging conditions; read off a plot
[1] = target: YC‐StFDL1a (Solanum tuberosum cv. Desiree)
YC‐StFD = YC‐StFD (UniProt A0A1E1F9A3); assay: bimolecular fluorescence complementation (BiFC); settings: random fields from maximum intensity projections (n ≥ 10); opposing half-leaves, same imaging conditions; read off a plot
YC‐StFDL1a = YC‐StFDL1a (UniProt A0A1E1F9A2); assay: bimolecular fluorescence complementation (BiFC); settings: random fields from maximum intensity projections (n ≥ 10); opposing half-leaves, same imaging conditions; read off a plot
YC‐St14‐3‐3a = assay: bimolecular fluorescence complementation (BiFC); settings: random fields from maximum intensity projections (n ≥ 10); opposing half-leaves, same imaging conditions; read off a plot
YC‐St14‐3‐3f = assay: bimolecular fluorescence complementation (BiFC); settings: random fields from maximum intensity projections (n ≥ 10); opposing half-leaves, same imaging conditions; read off a plot

Chain of UniProt A0A1E1F9A3 (A0A1E1F9A3 entry or part of it): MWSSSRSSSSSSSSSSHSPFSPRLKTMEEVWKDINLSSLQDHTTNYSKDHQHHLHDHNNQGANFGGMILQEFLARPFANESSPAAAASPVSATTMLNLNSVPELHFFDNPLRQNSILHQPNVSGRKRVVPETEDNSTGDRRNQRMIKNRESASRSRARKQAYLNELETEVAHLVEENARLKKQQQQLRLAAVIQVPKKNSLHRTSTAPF
Chain of UniProt A0A1E1F9A2 (A0A1E1F9A2 entry or part of it): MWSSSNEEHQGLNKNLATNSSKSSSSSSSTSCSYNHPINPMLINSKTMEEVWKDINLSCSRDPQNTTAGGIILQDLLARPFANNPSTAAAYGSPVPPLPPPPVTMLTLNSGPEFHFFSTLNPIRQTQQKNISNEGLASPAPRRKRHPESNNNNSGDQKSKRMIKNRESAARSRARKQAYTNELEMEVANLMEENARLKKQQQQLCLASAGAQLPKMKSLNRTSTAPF

**Q.** “YN‐StFDL1a (from UniProt A0A1E1F9A2) T224A” was tested. Which ratio to parent (YC‐StCEN) did it give?
**A.** 3.4

**Q.** Which luciferase activity of the p6A::LUC reporter (2.64 kb StSP6A promoter) in N. benthamiana leaves co-expressing StSP6A and estradiol-induced StFDL1a, against the reporter alone [1] does the source give for “StSP6A (tuberigen, FT orthologue of potato), 35S-driven GFP fusion (natural protein)” here?
**A.** 3 fold

**Q.** With YN‐StCEN R64K; P96L; F103A; R132K as the substance, how does the ratio to parent (YC‐StFD) read?
**A.** 2.7

**Q.** What about the ratio to parent (YC‐StFDL1a) of the same substance?
**A.** 2.8

**Q.** And the ratio to parent (YC‐St14‐3‐3a)?
**A.** 1.3

**Q.** What about the ratio to parent (YC‐St14‐3‐3f) of the same substance?
**A.** 1.2
